Experimental data published in PMC10661694, “Architecture and regulation of a GDNF-GFRα1 synaptic adhesion assembly” (Nature Communications, 2023).
Positions count from the first letter of the chain named. Names and notes keep the numbering of the source.

T1: human GDNF structured region, residues 110-211 (hGDNF^mat) (human, UniProt P39905 110-211)
T1 chain: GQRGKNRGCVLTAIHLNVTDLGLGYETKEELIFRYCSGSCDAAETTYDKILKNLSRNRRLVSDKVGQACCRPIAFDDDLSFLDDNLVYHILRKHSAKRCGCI

T2: full length, GPI-anchored rat GFRα1 (mGFRα1^FL; HA-rGFRα1^1-468) (rat) (UniProt Q62997)
T2 sequence (chain, GPI-anchor): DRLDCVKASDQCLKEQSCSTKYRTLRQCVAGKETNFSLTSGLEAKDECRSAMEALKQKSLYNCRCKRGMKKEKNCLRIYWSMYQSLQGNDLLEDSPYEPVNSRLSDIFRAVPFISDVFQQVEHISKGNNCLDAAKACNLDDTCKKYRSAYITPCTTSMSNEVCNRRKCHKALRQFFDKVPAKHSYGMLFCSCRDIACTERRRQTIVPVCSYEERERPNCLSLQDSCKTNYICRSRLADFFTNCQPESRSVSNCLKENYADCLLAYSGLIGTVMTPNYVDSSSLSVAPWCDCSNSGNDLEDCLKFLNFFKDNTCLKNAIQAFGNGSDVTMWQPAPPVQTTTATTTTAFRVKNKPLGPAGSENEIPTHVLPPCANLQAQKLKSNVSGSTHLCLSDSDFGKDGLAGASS

B1: zebrafish GFRα1 residues 20-353 (zGFRα1^D1-D3, lacking the GPI-anchor); ordered portion in the crystal zGFRα1^D2-D3 (domain or fragment, UniProt Q98TT9 144-353, looked up)
chain: EPALAKENNCLNAAKACNLNDTCKKYRSAYISPCTSRVSTAEVCNKRKCHKALRQFFDKVPPKHSYGMLYCSCPLGDQSACSERRRQTIVPACSYEDKERPNCLTLQVSCKTNYICRSRLADFFTNCQPEPLSLSGCLKENYADCLLSYSGLIGTVMTPNYLRSPKISVSPFCDCSSSGNSKEECDRFTEFFTDNACLRNAIQAFGNGTD
modifications: N-linked glycans (8 resolved for the 10 zGFRα1 protomers)
notes: GFRα1a, zebrafish, residues 20-353; In the crystal only D2-D3 is present (D1 clipped)
B2: zebrafish GFRα1 residues 144-368 (zGFRα1^D2-D3+) (domain or fragment, UniProt Q98TT9 144-368, looked up)
chain: EPALAKENNCLNAAKACNLNDTCKKYRSAYISPCTSRVSTAEVCNKRKCHKALRQFFDKVPPKHSYGMLYCSCPLGDQSACSERRRQTIVPACSYEDKERPNCLTLQVSCKTNYICRSRLADFFTNCQPEPLSLSGCLKENYADCLLSYSGLIGTVMTPNYLRSPKISVSPFCDCSSSGNSKEECDRFTEFFTDNACLRNAIQAFGNGTDVSVWHPMPPVQTTTS
notes: GFRα1a, zebrafish, residues 144-368 (D2-D3 and part of the C-tail, lacking D1); also called zGFRα1^144-368; source: Expi293F, secreted; purified (Ni-NTA, SEC) or co-expressed with zGDNF^mat and co-purified; not shown: His6, C-terminal, kept
B3: zebrafish GDNF mature structured region, residues 135-235 (zGDNF^mat) (ligand, UniProt Q98TU0 135-235, looked up)
chain: VKGQGRGCLLKEIHLNVTDLDLGYRTKEELIFRYCSGPCHDAETNYDKILNNLTHNKKLDKDTPSRTCCRPIAFDDDISFLDDSLEYHTLKKHSAKKCACV
notes: GDNF, zebrafish, mature structured region, residues 135-235; The co-expressed form is called untagged; the methods describe no separate untagged construct, so both are kept as one molecule; also called untagged zGDNF^mat; soluble zGDNF^mat; source: Expi293F, secreted; not shown: His6, N-terminal, cleaved
B4: hGFRα1^D1-CT-K251E (protein)
chain: DRLDCVKASDQCLKEQSCSTKYRTLRQCVAGKETNFSLASGLEAKDECRSAMEALKQKSLYNCRCKRGMKKEKNCLRIYWSMYQSLQGNDLLEDSPYEPVNSRLSDIFRVVPFISDVFQQVEHIPKGNNCLDAAKACNLDDICKKYRSAYITPCTTSVSNDVCNRRKCHKALRQFFDKVPAKHSYGMLFCSCRDIACTERRRQTIVPVCSYEEREKPNCLNLQDSCETNYICRSRLADFFTNCQPESRSVSSCLKENYADCLLAYSGLIGTVMTPNYIDSSSLSVAPWCDCSNSGNDLEECLKFLNFFKDNTCLKNAIQAFGNGSDVTVWQPAFPVQTTTATTTTALRVKNKPLGPAGSENEIPTHVLPPCANLQAQKLKSNVSGNTHLCISNGNYEKEG
B5: hGFRα1^D1-CT-K251E L287E (protein)
chain: B4 chain with L263E
B6: hGFRα1^D1-CT-L287E (protein)
chain: B4 chain with E227K, L263E
B7: human GFRα1 residues 25-424 (hGFRα1^D1-CT) (domain or fragment)
chain: B4 chain with E227K
B8: human GFRα1 residues 150-424 (hGFRα1^D2-CT) (domain or fragment)
chain: KGNNCLDAAKACNLDDICKKYRSAYITPCTTSVSNDVCNRRKCHKALRQFFDKVPAKHSYGMLFCSCRDIACTERRRQTIVPVCSYEEREKPNCLNLQDSCKTNYICRSRLADFFTNCQPESRSVSSCLKENYADCLLAYSGLIGTVMTPNYIDSSSLSVAPWCDCSNSGNDLEECLKFLNFFKDNTCLKNAIQAFGNGSDVTVWQPAFPVQTTTATTTTALRVKNKPLGPAGSENEIPTHVLPPCANLQAQKLKSNVSGNTHLCISNGNYEKEG
B9: rat GDNF (rGDNF) (ligand)
chain: SPDKQAAALPRRERNRQAAAASPENSRGKGRRGQRGKNRGCVLTAIHLNVTDLGLGYETKEELIFRYCSGSCEAAETMYDKILKNLSRSRRLTSDKVGQACCRPVAFDDDLSFLDDSLVYHILRKHSAKRCGCI
B10: zebrafish GDNF residues 134-235 (mature form, zGDNF^mat), crystallised in complex with zGFRα1^D1-D3 (ligand, UniProt Q98TU0 134-235, looked up)
chain: RVKGQGRGCLLKEIHLNVTDLDLGYRTKEELIFRYCSGPCHDAETNYDKILNNLTHNKKLDKDTPSRTCCRPIAFDDDISFLDDSLEYHTLKKHSAKKCACV
modifications: N-linked glycan at the N-glycosylation site of all zGDNF protomers
notes: GDNF, zebrafish, residues 134-235 (mature form); the methods give 135-235 for zGDNF^mat; Covalent dimer

Legend:
[1] = molecular target: the molecule itself; test: crystal structure; zGDNF^mat-zGFRα1^D1-D3 complex at 2.5 mg/ml in 20 mM Tris pH 7.0, 100 mM NaCl, 1 mM CaCl2; sitting drop, 22 °C; D1 clipped during crystallisation; 2.65 Å, P2_1, ten copies in the asymmetric unit
[2] = molecular target: the molecule itself; test: negative-stain electron microscopy; zGDNF^mat-zGFRα1^D2-D3+ cross-linked with 0.1% glutaraldehyde, SEC (Superose 6 Increase) in 20 mM HEPES pH 7.5, 130 mM NaCl, ~700 kDa fraction imaged; reconstruction at 30 Å
[3] = molecular target: B2; test: native gel or EMSA; blue native PAGE (3-12% Bis-Tris) of Ni2+-NTA purified co-expressed zGDNF^mat-zGFRα1 samples, 2 mg/ml, 10 mM HEPES pH 7.5, 130 mM NaCl, 1 mM CaCl2; time points; conditions: both partners purified
[4] = molecular target: T1, human GDNF structured region, residues …; test: SPR
[5] = molecular target: T2, full length, GPI-anchored rat GFRα1 (mGFRα1^FL; HA-rGFRα1^1-468) (rat)

Row | Kd [4] | Binder | further results
1 | – | B1 | stoichiometry N [1]: 5 protomers in each ring
2 | – | B2 | binding result [2]: binds
3 | – | B3 | stoichiometry N [3]: 1 zGDNF^mat protomers per zGFRα1 (10:10)
4 | 48 nM | B4 | –
5 | 91 nM | B5 | –
6 | 33 nM | B6 | –
7 | 32 nM | B7 | –
8 | 71 nM | B8 | –
9 | – | B9 | HEK293 cell adhesion assay: proportion of cell clusters of mGFRα1^FL-expressing cells after rat GDNF (200 ng/ml) [5]: 5 fold
10 | – | B10 | stoichiometry N [1]: 2 protomers in each covalent dimer
